Data on 1 molecule can be found in patent US20190119397A1 (ZIELBIO, published 2019).

The target in test [1] is T1, recombinant human Sec8-His protein (human).
T1 construct: also called recombinant human C-terminal portion of Plectin-1 protein; pET-10NC-Plec C term
T1 chain: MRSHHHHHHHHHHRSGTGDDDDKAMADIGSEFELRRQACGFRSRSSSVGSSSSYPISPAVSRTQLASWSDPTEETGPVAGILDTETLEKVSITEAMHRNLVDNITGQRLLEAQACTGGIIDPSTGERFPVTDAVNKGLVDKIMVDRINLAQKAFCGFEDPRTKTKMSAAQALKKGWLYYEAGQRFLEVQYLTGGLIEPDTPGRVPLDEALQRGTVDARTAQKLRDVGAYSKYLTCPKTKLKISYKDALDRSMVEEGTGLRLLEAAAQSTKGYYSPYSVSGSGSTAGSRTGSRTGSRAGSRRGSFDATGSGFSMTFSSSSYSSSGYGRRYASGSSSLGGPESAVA
Nature of the test: in vitro binding assay on recombinant human Sec8-His protein (FIG. 3A).

Test [2] addresses plectin-1 on the surface of cancer cells (Homo sapiens, UniProt Q15149 1-4684). Nature of the test: cell-based or functional assay.

plectin-1 on the surface of cancer cells, sequence (Q15149 whole entry): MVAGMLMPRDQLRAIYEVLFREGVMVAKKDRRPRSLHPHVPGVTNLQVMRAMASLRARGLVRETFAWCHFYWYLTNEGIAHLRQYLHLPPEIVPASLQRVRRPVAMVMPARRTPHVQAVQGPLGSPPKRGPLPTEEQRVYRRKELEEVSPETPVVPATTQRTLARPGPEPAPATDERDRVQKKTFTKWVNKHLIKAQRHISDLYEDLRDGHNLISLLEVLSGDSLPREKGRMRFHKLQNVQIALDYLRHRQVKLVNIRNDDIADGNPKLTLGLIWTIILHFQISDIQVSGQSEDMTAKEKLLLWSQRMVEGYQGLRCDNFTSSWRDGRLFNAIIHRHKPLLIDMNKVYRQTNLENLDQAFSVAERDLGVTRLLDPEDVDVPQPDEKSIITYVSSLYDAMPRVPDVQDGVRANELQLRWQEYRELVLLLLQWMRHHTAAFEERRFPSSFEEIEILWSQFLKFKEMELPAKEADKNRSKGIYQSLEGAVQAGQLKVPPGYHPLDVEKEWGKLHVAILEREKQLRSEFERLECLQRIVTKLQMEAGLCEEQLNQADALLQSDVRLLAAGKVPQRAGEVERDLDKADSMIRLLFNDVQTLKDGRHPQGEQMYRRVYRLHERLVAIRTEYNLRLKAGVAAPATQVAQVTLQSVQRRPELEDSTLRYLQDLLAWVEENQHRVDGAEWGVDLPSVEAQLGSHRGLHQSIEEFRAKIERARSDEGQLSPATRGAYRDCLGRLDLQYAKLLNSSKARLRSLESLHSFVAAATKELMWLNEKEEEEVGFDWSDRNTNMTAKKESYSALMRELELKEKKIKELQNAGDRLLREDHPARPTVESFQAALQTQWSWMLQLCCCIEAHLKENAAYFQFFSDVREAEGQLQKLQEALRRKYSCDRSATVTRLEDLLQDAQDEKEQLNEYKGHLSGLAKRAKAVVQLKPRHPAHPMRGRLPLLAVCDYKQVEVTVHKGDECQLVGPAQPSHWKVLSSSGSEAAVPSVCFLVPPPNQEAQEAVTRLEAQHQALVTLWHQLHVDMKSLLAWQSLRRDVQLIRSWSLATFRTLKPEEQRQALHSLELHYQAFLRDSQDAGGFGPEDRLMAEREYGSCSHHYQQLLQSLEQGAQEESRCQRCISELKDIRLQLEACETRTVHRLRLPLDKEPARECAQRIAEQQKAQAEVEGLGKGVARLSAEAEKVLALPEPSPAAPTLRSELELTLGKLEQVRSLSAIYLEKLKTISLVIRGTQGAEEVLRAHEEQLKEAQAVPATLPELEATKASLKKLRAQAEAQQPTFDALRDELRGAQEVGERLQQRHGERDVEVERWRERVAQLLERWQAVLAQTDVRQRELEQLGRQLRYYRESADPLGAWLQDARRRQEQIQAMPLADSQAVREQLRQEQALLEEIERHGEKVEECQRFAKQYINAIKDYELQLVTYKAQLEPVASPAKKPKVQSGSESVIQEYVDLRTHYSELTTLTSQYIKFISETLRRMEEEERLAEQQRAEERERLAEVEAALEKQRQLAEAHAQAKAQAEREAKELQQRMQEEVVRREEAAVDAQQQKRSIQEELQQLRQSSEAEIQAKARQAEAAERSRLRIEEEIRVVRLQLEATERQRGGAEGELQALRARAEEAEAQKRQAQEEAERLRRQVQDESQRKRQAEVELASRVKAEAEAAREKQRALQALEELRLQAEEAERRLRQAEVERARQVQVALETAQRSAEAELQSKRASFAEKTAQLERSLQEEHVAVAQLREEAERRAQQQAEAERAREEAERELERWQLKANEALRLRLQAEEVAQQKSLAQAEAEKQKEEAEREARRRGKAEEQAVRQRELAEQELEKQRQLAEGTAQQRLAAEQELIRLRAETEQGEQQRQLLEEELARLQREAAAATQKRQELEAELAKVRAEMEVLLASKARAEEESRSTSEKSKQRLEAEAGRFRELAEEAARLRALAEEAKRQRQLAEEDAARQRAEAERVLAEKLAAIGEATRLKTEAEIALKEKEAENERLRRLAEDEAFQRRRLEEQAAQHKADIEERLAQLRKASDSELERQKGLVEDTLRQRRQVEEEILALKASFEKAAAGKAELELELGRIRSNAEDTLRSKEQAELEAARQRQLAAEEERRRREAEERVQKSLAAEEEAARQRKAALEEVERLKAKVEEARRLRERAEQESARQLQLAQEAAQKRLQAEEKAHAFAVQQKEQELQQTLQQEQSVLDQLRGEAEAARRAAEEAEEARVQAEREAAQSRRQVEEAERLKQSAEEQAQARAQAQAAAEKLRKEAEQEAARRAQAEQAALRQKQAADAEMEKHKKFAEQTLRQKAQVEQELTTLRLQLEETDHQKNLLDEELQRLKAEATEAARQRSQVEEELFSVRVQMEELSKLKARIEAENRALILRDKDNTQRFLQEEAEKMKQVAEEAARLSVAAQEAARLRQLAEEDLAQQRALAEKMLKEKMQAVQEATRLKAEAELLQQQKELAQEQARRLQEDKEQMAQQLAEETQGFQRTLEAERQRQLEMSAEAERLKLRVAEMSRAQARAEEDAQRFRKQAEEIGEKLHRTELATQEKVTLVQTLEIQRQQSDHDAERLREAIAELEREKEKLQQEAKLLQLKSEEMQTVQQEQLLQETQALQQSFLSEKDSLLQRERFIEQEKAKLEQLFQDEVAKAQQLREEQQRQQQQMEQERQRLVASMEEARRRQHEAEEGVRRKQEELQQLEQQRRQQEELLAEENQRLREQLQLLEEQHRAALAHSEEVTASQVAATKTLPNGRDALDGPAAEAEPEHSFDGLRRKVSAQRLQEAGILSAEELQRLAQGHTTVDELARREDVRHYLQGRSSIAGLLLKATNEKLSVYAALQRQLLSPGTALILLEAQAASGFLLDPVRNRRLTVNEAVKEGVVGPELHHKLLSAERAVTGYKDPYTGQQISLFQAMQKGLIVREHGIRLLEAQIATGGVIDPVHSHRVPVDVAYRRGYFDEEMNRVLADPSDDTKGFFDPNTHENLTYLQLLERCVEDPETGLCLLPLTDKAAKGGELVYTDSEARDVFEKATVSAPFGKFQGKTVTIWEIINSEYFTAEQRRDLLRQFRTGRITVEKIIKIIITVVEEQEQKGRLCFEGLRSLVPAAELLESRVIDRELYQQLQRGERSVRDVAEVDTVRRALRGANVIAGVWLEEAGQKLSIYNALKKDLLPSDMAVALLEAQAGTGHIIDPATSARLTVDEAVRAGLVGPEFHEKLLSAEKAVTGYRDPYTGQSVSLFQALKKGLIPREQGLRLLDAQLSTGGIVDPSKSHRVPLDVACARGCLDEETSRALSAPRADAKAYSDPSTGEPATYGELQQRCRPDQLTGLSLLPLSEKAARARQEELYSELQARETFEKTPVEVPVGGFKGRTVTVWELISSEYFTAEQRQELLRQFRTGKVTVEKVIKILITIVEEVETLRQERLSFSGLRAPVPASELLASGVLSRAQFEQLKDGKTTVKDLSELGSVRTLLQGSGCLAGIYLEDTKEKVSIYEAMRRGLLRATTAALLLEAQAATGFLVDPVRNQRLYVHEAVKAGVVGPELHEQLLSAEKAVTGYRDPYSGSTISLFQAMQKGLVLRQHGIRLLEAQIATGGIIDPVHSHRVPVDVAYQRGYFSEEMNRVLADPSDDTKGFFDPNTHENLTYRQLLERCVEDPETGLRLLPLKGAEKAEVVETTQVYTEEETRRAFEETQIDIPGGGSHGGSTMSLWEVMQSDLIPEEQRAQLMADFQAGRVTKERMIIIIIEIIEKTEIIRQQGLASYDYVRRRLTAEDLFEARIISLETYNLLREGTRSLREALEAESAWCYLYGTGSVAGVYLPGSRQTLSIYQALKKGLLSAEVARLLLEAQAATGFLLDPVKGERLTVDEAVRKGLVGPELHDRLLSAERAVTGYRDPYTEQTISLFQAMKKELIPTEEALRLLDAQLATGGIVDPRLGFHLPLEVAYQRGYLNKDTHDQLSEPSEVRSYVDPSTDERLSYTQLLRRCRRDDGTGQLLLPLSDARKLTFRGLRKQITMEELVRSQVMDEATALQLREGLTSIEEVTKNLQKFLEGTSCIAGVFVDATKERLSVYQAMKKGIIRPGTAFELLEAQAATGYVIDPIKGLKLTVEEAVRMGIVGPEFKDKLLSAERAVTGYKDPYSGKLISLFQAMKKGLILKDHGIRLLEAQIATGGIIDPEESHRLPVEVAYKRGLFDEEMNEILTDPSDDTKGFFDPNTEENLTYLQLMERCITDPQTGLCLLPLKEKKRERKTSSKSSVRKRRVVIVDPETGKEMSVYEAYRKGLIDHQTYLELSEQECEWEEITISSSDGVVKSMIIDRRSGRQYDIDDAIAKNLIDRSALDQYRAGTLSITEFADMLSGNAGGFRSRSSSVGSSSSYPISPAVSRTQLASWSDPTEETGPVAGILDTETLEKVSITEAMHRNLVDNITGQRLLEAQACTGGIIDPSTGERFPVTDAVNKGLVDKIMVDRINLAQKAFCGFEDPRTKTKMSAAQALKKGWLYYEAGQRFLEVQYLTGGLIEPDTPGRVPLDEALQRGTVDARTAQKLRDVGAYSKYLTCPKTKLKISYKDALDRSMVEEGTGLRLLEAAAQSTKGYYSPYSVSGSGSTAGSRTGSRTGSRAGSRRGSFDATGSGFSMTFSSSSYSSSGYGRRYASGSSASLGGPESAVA

B1: PAb1 (antibody, mouse IgG2b, kappa, V domains shown)
VH: QIQLVQSGPELKKPGETVKISCKASGYTFTDYSMHWVKQAPGKGLKWMGWINTETGEPTYADDFKGRFAFSLETSASTAYLQINNLKNEDTATYFCAPGGFAYWGQGTLVTVSA
VL: DIVMTQAAPSVPVTPGESVSISCRSSKSLLHSNGNTYLYWFLQRPGQSPQLLIYRMSNLASGVPDRFSGSGSGTAFTLRISRVEAEDVGVYYCMQHLEYPLTFGAGTKLELKR
notes: Mouse hybridoma monoclonal antibody; also called Plectin-1 mAb; Plectin-1mAb
Take B1: the Kd (commonly the concentration at which binding is half-saturated) in test [1] is < 1 nM. In test [2], the “Plectin-1mAb EC50 (nM): concentration of mAb that reduced cell viability by 50%, L3.6pl cells, 72 hours” value was determined as 34 nM; the “Plectin-1mAb EC50 (nM): concentration of mAb that reduced cell viability by 50%, OVCAR8 cells, 72 hours” value was found to be 63 nM; the “Plectin-1mAb EC50 (nM): concentration of mAb that reduced cell viability by 50%, SKOV3 cells, 72 hours” value worked out at 53 nM; the “Plectin-1mAb EC50 (nM): concentration of mAb that reduced cell viability by 50%, YapC cells, 72 hours” value was found to be 43 nM.
